In paper PMC3640471, “The structures of Arabidopsis Deg5 and Deg8 reveal new insights into HtrA proteases” (Acta Crystallographica Section D: Biological Crystallography, 2013):

Assays:
[1] = biological target: Deg8 (sample of the analytical SEC) (Arabidopsis thaliana) (UniProt Q9LU10); assay: SEC; analytical SEC of Deg8 at pH 8.0; Superdex 200 10/300 GL, 10 µM protein, sodium phosphate, 150 mM NaCl
[2] = biological target: Deg8 (sample of the analytical SEC) (Arabidopsis thaliana) (UniProt Q9LU10); assay: SEC; analytical SEC of Deg8 at pH 6.0; Superdex 200 10/300 GL, 10 µM protein, sodium phosphate, 150 mM NaCl
[3] = biological target: the molecule itself; assay: crystal structure; Deg5 (S266A), space group C2, three molecules per asymmetric unit, 2.6 Å
[4] = biological target: the molecule itself; assay: SEC; analytical SEC, Superdex 200 10/300 GL, 10 µM protein, sodium phosphate pH 6.0 or 8.0, 150 mM NaCl
[5] = biological target: the molecule itself; assay: crystal structure; Deg8 (S292A), space group C2, three molecules per asymmetric unit, 2.0 Å; hexamer in the crystal

Deg8 (sample of the analytical SEC) (from UniProt Q9LU10 91-448) (enzyme)
stoichiometry N [1]: 6 | stoichiometry N [2]: 3

B1: Arabidopsis thaliana Deg5 (S266A) (enzyme)
chain: LEQFKEKEEELEEEEERNVNLFQKTSPSVVYIEAIELPKTSSGDILTDEENGKIEGTGSGFVWDKLGHIVTNYHVIAKLATDQFGLQRCKVSLVDAKGTRFSKEGKIVGLDPDNDLAVLKIETEGRELNPVVLGTSNDLRVGQSCFAIGNPYGYENTLTIGVVSGLGREIPSPNGKSISEAIQTDADINSGNAGGPLLDSYGHTIGVNTATFTRKGSGMSSGVNFAIPIDTVVRTVPYLIVYGTAYRDR
notes: HtrA protease Deg5 of Arabidopsis thaliana, catalytic Ser266 mutated to alanine; PDB 4ic5 holds the crystallised chain; source: purified; expression and purification described previously (Fan et al., 2012)
stoichiometry N [3]: 3

B2: Deg5 (E87A/D260A/S266A) (enzyme, Arabidopsis thaliana)
chain: LEQFKEKEEELEEAEERNVNLFQKTSPSVVYIEAIELPKTSSGDILTDEENGKIEGTGSGFVWDKLGHIVTNYHVIAKLATDQFGLQRCKVSLVDAKGTRFSKEGKIVGLDPDNDLAVLKIETEGRELNPVVLGTSNDLRVGQSCFAIGNPYGYENTLTIGVVSGLGREIPSPNGKSISEAIQTDAAINSGNAGGPLLDSYGHTIGVNTATFTRKGSGMSSGVNFAIPIDTVVRTVPYLIVYGTAYRDR
notes: HtrA protease Deg5 of Arabidopsis thaliana with E87A, D260A and S266A; parent is Deg5 (S266A), m1; also called Deg5 (S266A/E87A/D260A) triple mutant; mutant (E87A/D260A/S266A)
stoichiometry N [4]: 3

B3: Arabidopsis thaliana Deg8 (S292A) (enzyme, UniProt Q9LU10 91-448, looked up)
chain: LGDPSVATVEDVSPTVFPAGPLFPTEGRIVQLFEKNTYSVVNIFDVTLRPQLKMTGVVEIPEGNGSGVVWDGQGYIVTNYHVIGNALSRNPSPGDVVGRVNILASDGVQKNFEGKLVGADRAKDLAVLKVDAPETLLKPIKVGQSNSLKVGQQCLAIGNPFGFDHTLTVGVISGLNRDIFSQTGVTIGGGIQTDAAINPGNAGGPLLDSKGNLIGINTAIFTQTGTSAGVGFAIPSSTVLKIVPQLIQFSKVLRAGINIELAPDPVANQLNVRNGALVLQVPGKSLAEKAGLHPTSRGFAGNIVLGDIIVAVDDKPVKNKAELMKILDEYSVGDKVTLKIKRGNEDLELKISLEEKSS
notes: HtrA protease Deg8 of Arabidopsis thaliana, 358 residues Leu91-Ser448, catalytic Ser292 mutated to alanine; residues 104-448 defined in the density; source: expression and purification described previously (Shan et al., 2013)
stoichiometry N [5]: 6
